According to the RNAGym collection of RNA variant scans (doi:10.1073/pnas.2313332121):

B1: TPR t1 (parent)
chain: GACCAAUCUGCCCUCAGAGCUCGAGAACAUCUUCGGAUGCAGAGGAGGCAGGCUUCGGUGGCGCGAUAGCGCCAACGUCCUCAACCUCCAAUGCAUCCCACCACAUGAUGAUGCCUGAAGAGCCUUGGUUUUUUG

Variants of: B1
Assay: polymerase ribozyme fitness, log enrichment relative to wild type (log ratio); higher = more active; in vitro selection for triplet polymerase activity
Method in brief: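 One round of in vitro selection, in triplicate, was applied to PCR-built, transcribed mutant libraries of each subunit of a heterodimeric triplet polymerase ribozyme. The steps were annealing with a biotinylated primer, partner subunit and triplets, incubation frozen at −7 °C, gel excision of extended constructs, streptavidin-bead capture and RT-PCR. Fitness is the logarithm, base 2, of genotype enrichment over wild-type enrichment from inverse-variance-weighted replicate averages of Illumina-sequenced inputs and outputs, keeping genotypes with ≥10 input reads and ≥1 read per output.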

| Variant | polymerase ribozyme fitness (log ratio) |
| --- | --- |
| A24U G36U U87C A90G G120U C124A U130G | -6.87 |
| G23C C62A C99U U112C | -6.42 |
| G23C G120A | -5.95 |
| C22G G63C C80A | -5.79 |
| A24C C73G A83U C114G | -6.1 |
| C22G C98U | -4.52 |
| C22U G69U C94G | -1.67 |
| C22G G60C A95C A121U | -2.32 |
| G25A G47U A100U G110U U112A | -6.61 |
| G25A U106A | -4.81 |
| A24G A37U U96C G110U | -3.88 |
| G23U U33G C49G C53G U59G G71A U78A A84U C94G A100U | -8.02 |
| C22G G23A C97U G120C | -3 |
| C22G G61C | -3.76 |
| C22G G61U | -2.12 |
| C22G G44C G48U A121U | -3.43 |
| C22U G93C C114A | -6.86 |
| A24G G120A | -0.603 |
| C22G G52U G63C G93A | -4.47 |
| C22U C31G G63C C82A U87C U112A | -6.33 |
| C22G G42U G44U C89U | -4.83 |

| Variant | polymerase ribozyme fitness (log ratio) |
| --- | --- |
| C22G G44U | -4.12 |
| C22G G44C | -4.3 |
| C22U C62U | -4.34 |
| G23A C49U C56A U116C | -6.08 |
| C22U G60A C123A | -4.89 |
| C22U C114G C124A U125G | -5.84 |
| C22G C53G C123G | -2.61 |
| C22G G52U C73U A95C | -5.41 |
| A24G C31U G60C U96G U106A G120C | -4 |
| A24U C123U | -4.2 |
| A24U C123G | -3.41 |
| C22U G45U G47C | -7.47 |
| A24G C73G G120A | -2.15 |
| G23U G35A A46U G47U G71A G117C U130A | -6.34 |
| G23A C72U C85U | -6.02 |
| G23A G69U A90U C124U | -5.33 |
| C22G C56A C64U C80G C101G U130A | -5.63 |
| C22G G63U U92G G110A | -5.8 |
| G23U C72U | -6.65 |
| A24G C56A G60U A83C | -2.27 |
| A24G G71A G127U | -5.42 |

| Variant | polymerase ribozyme fitness (log ratio) |
| --- | --- |
| A24G A29G C56A U87G G110A U133A | -3.1 |
| A24U G47A G110A C114A | -6.75 |
| C22G G52U A111C | -3.81 |
| A24G G42U U59G C88G | -5.92 |
| A24G G77U G113U G122U C124A | -6.49 |
| G23U G61U C86A A100U C114U G117U | -7.47 |
| A24U A37G A108G G110U A121C | -6.34 |
| C22U A75G | -3.55 |
| A24C A26G | -4.53 |
| A24G A90G | -1.65 |
| A24G G48A G93A C97U A111G | -3.16 |
| G23C G110C | -7.42 |
| C22G C49U G110C | -5.9 |
| A24G G48A | -1.73 |
| C22U C31G A50U C72G C82A A95G G107C | -5.28 |
| A24G C62A C89G G113C C115A A118C | -6.92 |
| A24G A46U C72U U126G G128C | -4.57 |
| A24U C79U C114U G128A U131A | -5.77 |
| C22U A24G G47A U54A G57A G61A U81A | -6.51 |
| A24G G48U G110A U132A | -3.72 |
| G23A A43C A84G U87C G117U | -6.59 |

| Variant | polymerase ribozyme fitness (log ratio) |
| --- | --- |
| C22G G36A G47C A119U C124G | -3.6 |
| C22G G48C C72U C124U | -2.66 |
| A24G U78C | -1.32 |
| C22U G77A | -4.04 |
| A24G G47A G77U C86U | -2.29 |
| C22G G23C A24C C89A C123A | -6.86 |
| C22U A41U C73G C99U | -6.26 |
| A24U G47A G52A G61A C101G C114G G122A | -7.25 |
| A24G C70A G110A A111U | -5.11 |
| G23C C28U C102G U112A C115A G120A | -8.12 |
| C22U U112A | -2.83 |
| A24C C86U G110A | -5.7 |
| A24G G60A | -1.82 |
| A24G U59C U87A | -2.51 |
| G25A G71A U112C | -6.36 |
| G23U C56U C70G A75U U78A C99A U112A | -6.9 |
| A24U G110A | -6.09 |
| G25A C56U | -5.12 |
| C22G G113C | -5.28 |
| A24G A75U | -2.53 |
